± gives the uncertainty stated by the source.
B1: Zinc finger MYM-type protein 3, residues 405 to 444; numbered along this chain, Q14202 (parent)
chain: DATRCSICQKTGEVLHEVSNGSVVHRLCSDSCFSKFRANK

Variants of: B1
Experiment: abundance fitness (aPCA) (normalised: wild type 0, dead -1); higher = more abundant; growth selection in yeast, the domain comes from the species named
Conditions: Homo sapiens
For DATRCSICQKTGEVLHEVSNGSVVHRLCSDSCFSKFRANH, the abundance fitness was 0.222 ± 0.08. DATRCSICQKTGEVLHEVSNGSVVHRLCSDSCFSKFRANE showed an abundance fitness of 0.077 ± 0.09. DATRCSICQKTGENLHEVSNGSVVHRLCSDSCFSKFRANK gave an abundance fitness of -0.087 ± 0.092. Work on DATRCSICQKTGEGLHEVSNGSVVHRLCSDSCFSKFRANK yielded an abundance fitness of -0.08 ± 0.052. DATRCSICQKTGEMLHEVSNGSVVHRLCSDSCFSKFRANK gave an abundance fitness of -0.029 ± 0.065. For DATRCSICQKTGEVLHEVSNNSVVHRLCSDSCFSKFRANK, the abundance fitness was -0.646 ± 0.21. DATRCSICQKTGEVLHEVSNVSVVHRLCSDSCFSKFRANK showed an abundance fitness of -0.611 ± 0.059. DATRCSICQKTGEVLHEVSNCSVVHRLCSDSCFSKFRANK showed an abundance fitness of -0.335 ± 0.081. DATRCSICQKTGEVLMEVSNGSVVHRLCSDSCFSKFRANK showed an abundance fitness of -0.551 ± 0.074. Work on DATRCSICQKTGEVLLEVSNGSVVHRLCSDSCFSKFRANK yielded an abundance fitness of -0.645 ± 0.057. DATRCSICQKTGEVLFEVSNGSVVHRLCSDSCFSKFRANK showed an abundance fitness of -0.208 ± 0.12. Variant DATRCSICQKTGEVLHEVSNGSVVRRLCSDSCFSKFRANK has an abundance fitness of -0.318 ± 0.054. DATRCSICQKTGEVLHEVSNGSVVWRLCSDSCFSKFRANK showed an abundance fitness of -0.247 ± 0.061. In the case of DATRCSICQKTGEVLHEVSNGSVVLRLCSDSCFSKFRANK, the abundance fitness is reported as -0.266 ± 0.056. For DATRCSICQKTGEVLHEVSNGSVVPRLCSDSCFSKFRANK, the abundance fitness was -0.363 ± 0.073. With AATRCSICQKTGEVLHEVSNGSVVHRLCSDSCFSKFRANK the abundance fitness was -0.182 ± 0.089. In the case of KATRCSICQKTGEVLHEVSNGSVVHRLCSDSCFSKFRANK, the abundance fitness is reported as 0.157 ± 0.079. Variant EATRCSICQKTGEVLHEVSNGSVVHRLCSDSCFSKFRANK has an abundance fitness of 0.331 ± 0.076. For DARRCSICQKTGEVLHEVSNGSVVHRLCSDSCFSKFRANK, the abundance fitness was -0.047 ± 0.052. With DATRCSICQKTGEVLHEVDNGSVVHRLCSDSCFSKFRANK the abundance fitness was -0.078 ± 0.072. DATRCSICQKTGEVLHEVPNGSVVHRLCSDSCFSKFRANK showed an abundance fitness of 0.023 ± 0.065. With DATRCSICQKTGEVLHEVYNGSVVHRLCSDSCFSKFRANK the abundance fitness was -0.383 ± 0.15. Work on DATRCSICQKTGEVLHEVSNGSVVHRNCSDSCFSKFRANK yielded an abundance fitness of -0.618 ± 0.096. For DATRCSICQKTGEVLHEVSNGSVVHRDCSDSCFSKFRANK, the abundance fitness was -0.569 ± 0.092. For DATRCSICQKTGEVLHEVSNGSVVHRWCSDSCFSKFRANK, the abundance fitness was -0.205 ± 0.056. In the case of DATRCSICQKTGEVLHEVSNGSVVHRACSDSCFSKFRANK, the abundance fitness is reported as -0.393 ± 0.059. Work on DATRCSICQKTGEVLHEVSNGSVVHRHCSDSCFSKFRANK yielded an abundance fitness of -0.382 ± 0.08. DATRCSICQKTGEVLHEVSNGSVVHRRCSDSCFSKFRANK showed an abundance fitness of -0.393 ± 0.055. With DATRCSICQKTGEVLHEVSNGSVVHRVCSDSCFSKFRANK the abundance fitness was -0.22 ± 0.056. Variant DATRCSICQKTGEVLHEVSNGSYVHRLCSDSCFSKFRANK has an abundance fitness of -0.166 ± 0.077. Work on DATRCSICQKTGEVLHEVSNGSPVHRLCSDSCFSKFRANK yielded an abundance fitness of -0.374 ± 0.076. In the case of DATRCSICQKTGEVLHEVSNGSAVHRLCSDSCFSKFRANK, the abundance fitness is reported as -0.085 ± 0.057. In the case of DATRCSICQKTGFVLHEVSNGSVVHRLCSDSCFSKFRANK, the abundance fitness is reported as 0.036 ± 0.1. Work on DATRCSICQKTGLVLHEVSNGSVVHRLCSDSCFSKFRANK yielded an abundance fitness of -0.391 ± 0.057. DATRCSICQKTGGVLHEVSNGSVVHRLCSDSCFSKFRANK showed an abundance fitness of -0.271 ± 0.056. In the case of DATRCSICQKTGSVLHEVSNGSVVHRLCSDSCFSKFRANK, the abundance fitness is reported as -0.201 ± 0.054. DATRCSICQKTGEVLHEVSNGSVVHRLCSDSCFSYFRANK gave an abundance fitness of -0.175 ± 0.26. Work on DATRCSICQKTGEVLHEVSNGSVVHRLCSDSCFSPFRANK yielded an abundance fitness of -0.471 ± 0.074. With DATRCSICQKTGEVLHEVSNGSVVHFLCSDSCFSKFRANK the abundance fitness was -0.177 ± 0.075. Variant DATRCSICQKTGEVLHEVSNGSVVHTLCSDSCFSKFRANK has an abundance fitness of -0.048 ± 0.065. Variant DATRCSICQKTGEVLHEVSNGSVVHLLCSDSCFSKFRANK has an abundance fitness of -0.196 ± 0.055. Variant DATRCGICQKTGEVLHEVSNGSVVHRLCSDSCFSKFRANK has an abundance fitness of -0.252 ± 0.053. With DATRCVICQKTGEVLHEVSNGSVVHRLCSDSCFSKFRANK the abundance fitness was -0.469 ± 0.059. DATRCFICQKTGEVLHEVSNGSVVHRLCSDSCFSKFRANK showed an abundance fitness of -0.012 ± 0.078. Work on DATRCYICQKTGEVLHEVSNGSVVHRLCSDSCFSKFRANK yielded an abundance fitness of 0.052 ± 0.073. Variant DATRCRICQKTGEVLHEVSNGSVVHRLCSDSCFSKFRANK has an abundance fitness of -0.228 ± 0.056. With DATRCSICQKTGEVLHEVSNGSVVHRLCSDSCFSKFNANK the abundance fitness was 0.135 ± 0.11. For DATRCSICQKTGEVLHEVSNGSVVHRLCSDSCFSKFVANK, the abundance fitness was -0.23 ± 0.057. With DATRCSICQKTGEVLHEVSNGSVVHRLCSDSCFSKFSANK the abundance fitness was 0.048 ± 0.057. DATRCSICQKTGEVLHEVSNGSVVHRLCSDSCFSKFQANK showed an abundance fitness of 0.106 ± 0.069. Work on DATRCSICQKTGEVLHEVSNGSVVHRLCSDQCFSKFRANK yielded an abundance fitness of 0.042 ± 0.075. DATRCSICQKTGEVLHEVSNGSVVHRLCSDPCFSKFRANK showed an abundance fitness of -0.025 ± 0.072. In the case of DATRCSICQKTGEVLHEVSNGSVVHRLCSDMCFSKFRANK, the abundance fitness is reported as -0.006 ± 0.072. Variant DATMCSICQKTGEVLHEVSNGSVVHRLCSDSCFSKFRANK has an abundance fitness of 0.047 ± 0.058. Variant DATECSICQKTGEVLHEVSNGSVVHRLCSDSCFSKFRANK has an abundance fitness of -0.211 ± 0.067. Variant DATSCSICQKTGEVLHEVSNGSVVHRLCSDSCFSKFRANK has an abundance fitness of -0.35 ± 0.062. DATRCSICQKTGEVLHEVSNGSVVHRLCSDSSFSKFRANK gave an abundance fitness of -0.645 ± 0.079. DATRCSICQKTGEVLHEVSNGSVVHRLCSDSHFSKFRANK showed an abundance fitness of -0.59 ± 0.11. With DATRCSICQKTGEVLHEVSNGSVVHRLCSDSKFSKFRANK the abundance fitness was -0.727 ± 0.097. In the case of DATRCSICQKTGEVLHEVSNGSVVHRLCSDSPFSKFRANK, the abundance fitness is reported as -0.763 ± 0.13. DATRCSICQKTGEVLHEVSNGSVVHRLCSDSTFSKFRANK showed an abundance fitness of -0.565 ± 0.1. DATRCSICQKTLEVLHEVSNGSVVHRLCSDSCFSKFRANK gave an abundance fitness of -0.245 ± 0.061. Variant DATRCSICQKTGEVLHEVSNGHVVHRLCSDSCFSKFRANK has an abundance fitness of -0.055 ± 0.076.

From the Human Domainome abundance scans (Beltran et al. 2025)
